# Reference: US20050100989A1 (MERCK SERONO, published 2005)
# Values joined by “and” are separate entries in the source; they are usually repeats but may differ in a detail not shown here. Equal values may be shown once.
# T1: human FSH receptor (human, UniProt P23945 18-695)
# T1 sequence (looked up): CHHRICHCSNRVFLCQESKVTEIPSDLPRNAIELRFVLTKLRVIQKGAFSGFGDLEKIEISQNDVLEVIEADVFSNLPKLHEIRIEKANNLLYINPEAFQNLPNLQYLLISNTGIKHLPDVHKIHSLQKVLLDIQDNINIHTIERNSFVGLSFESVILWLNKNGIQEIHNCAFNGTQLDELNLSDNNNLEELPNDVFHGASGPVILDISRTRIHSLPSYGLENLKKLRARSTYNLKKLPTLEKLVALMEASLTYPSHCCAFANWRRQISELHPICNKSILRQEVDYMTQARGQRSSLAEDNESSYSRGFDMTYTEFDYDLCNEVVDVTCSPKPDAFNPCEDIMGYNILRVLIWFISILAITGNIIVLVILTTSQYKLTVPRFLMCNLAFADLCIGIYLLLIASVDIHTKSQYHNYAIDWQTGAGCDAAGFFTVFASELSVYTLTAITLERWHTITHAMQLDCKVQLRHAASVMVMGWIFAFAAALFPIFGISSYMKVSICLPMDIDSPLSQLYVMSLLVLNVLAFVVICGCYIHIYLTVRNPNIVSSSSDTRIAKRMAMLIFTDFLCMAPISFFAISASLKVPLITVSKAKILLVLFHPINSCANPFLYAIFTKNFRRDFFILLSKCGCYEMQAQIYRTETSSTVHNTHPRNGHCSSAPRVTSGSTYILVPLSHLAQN
# Legend:
# human FSH receptor [1] = target: T1, human FSH receptor; assay: cell-based or functional assay
# human FSH receptor [2] = target: T1, human FSH receptor; assay: competition with 125I radiolabelled FSH on membrane preparations with human FSH receptor
# human FSH receptor [3] = target: T1, human FSH receptor; assay: competition with 0.4 nM 125I-FSH on CHO membranes bearing human FSHR, filtration, single site model
# Method: Large batches of CHO cells line which recombinantly express human FSH receptor or human LH receptor were grown and disrupted by nitrogen cavitation (20 min equilibration to 900 psi, followed by rapid pressure release) in 0.025 M Tris pH 7.4 containing 0.25 M sucrose, 10 mM MgCl₂, 1 mM EDTA and one part per thousand Sigma Protease Inhibitor cocktail (p8350). Following preliminary clarification (10 min×1000×g at 4° C.) the membranes fraction was pelletted (60 min×100,000×g×4° C.) by ultracentrifugation. The membranes fraction was resuspended in binding buffer (0.01 M Tris pH 7.4 containing 5 mM MgCl₂), protein concentration estimated by Bradford (BioRad) protein assay and stored frozen at −80° C. for future use. Typically 15 μg of membrane protein appropriately bearing FSHR or LHR was analyzed, per well, in competition assays.
# Radioligand binding was evaluated in 96 well plates, 100 μl/sample well. The assay buffer was 0.01 M Tris pH 7.4 containing 5 mM MgCl₂ and 0.1% BSA and 0.3 nM ¹²⁵I-hCG (for LHR) or 0.4 nM ¹²⁵I-FSH (for FSHR). […] Nonspecific binding was determined in the presence of 500 nM unlabeled hCG or FSH. Binding was allowed to equilibrate for 90 min at 37° C. with shaking. […] Bound radioactivity was measured in an HP Cobra II gamma counter using a pre-programmed detection window specific for ¹²⁵I emission. Data were analyzed using a single site model and Graph Pad Prizm software.
# human FSH receptor [4] = target: T1, human FSH receptor; assay: cell-based or functional assay; remark: listed apart in the source
EC50 (FSHR-coupled cAMP production) (human FSH receptor [1]) [pM],Ki (human FSH receptor [2]) [pM],Ki (human FSH receptor [3]),FSHR EC50 (cAMP production) (human FSH receptor [4]),Binder
39,860,,,"FSH single β-subunit mutant β E55N/V57T (mutant β-subunit expressed together with the complementary wild type α-subunit) (ligand, N-linked glycosylation; extra consensus site at N55 (hyperglycosylated by shift of apparent molecular weight); N-linked glycosylation (glycoprotein made in CHO cells), also called βE55/V57T) chain 1: not shown chain 2: NSCELTNITIAIEKEECRFCISINTTWCAGYCYTRDLVYKDPARPKIQKTCTFKNLTYETVRVPGCAHHADSLYTYPVATQCHCGKCDSDSTDCTVRGLGPSYCSFGEMKE"
,,1900 pM and 2300 pM,61.2 pM and 20.9 pM,"GM-1 (FSH double glycosylation mutant: α-subunit H83N and β-subunit E55N/V57T) (ligand, N-linked glycosylation (glycoprotein made in CHO-Dukx cells), Heterodimer; also called GM-1 Lot 1; GM-1 Lot 2) chain 1: not shown chain 2: NSCELTNITIAIEKEECRFCISINTTWCAGYCYTRDLVYKDPARPKIQKTCTFKNLTYETVRVPGCAHHADSLYTYPVATQCHCGKCDSDSTDCTVRGLGPSYCSFGEMKE"
